Assay results as given in patent US20260070984A1 (Boehringer Ingelheim, published 2026).
Residue numbers refer to the chain shown, from its start.

B1: Chimeric 703D10 (antibody, V domains shown)
VH: QVQLQQPGAELVKPGASVKLSCKASGYSFTSYWMHWVRQRPGQGLEWIGDIDPSNSYAYHSQKFKGKATLTVDKSSSTAYMQLSSLTSEDSAVYFCARADGTSHWYFDVWGAGTAVTVSS
VL: QIVLTQSPGIMSASPGEKVTITCSANSSVSFMHWFQQKPGTSPKIWIYSTSSLASGVPARFSGSGSGTSYSLTISRMEAEDAATYYCQQRSSYPLTFGAGTKLELK
notes: Mouse variable domains in human IgG4Pro (Ser228Pro) backbone; also called 703D10 in human IgG4Pro backbone
B2: Chimeric 820C3 (antibody, V domains shown)
VH: QIQLQQSGPELVKTGASVKISCKASGNTFNSNYIQWVKQRPGQGLEWIGWIYPGDGSTNYSEKFKGKTTLTADKSSSTAYMLVSSLTSEDSAVYFCARYGPVPFDYWGQGTTLSVSS
VL: DIQMTQTTSSLSASLGDRVTISCSASQDIFNYLNWYQQKPDGTVKLLIYYTSSLHSGVPSRFSGSGSGTDFSLTISNLEPEDIATYYCQQYSNLPYTFGGGTKLEIK
notes: Mouse variable domains in human IgG4Pro (Ser228Pro) backbone; also called chimeric 820C3 in IgG4Pro; 820C3-4P
B3: Chimeric 718C2 (antibody, V domains shown)
VH: EVQLQQSGPELVKPGASVKMSCKASGYTFTSYVMHWVRQKPGQGLEWIGYIDPDNDGTKYNEKFKGKATLTSDKSSSTAYMELSSLTSEDSAVYYCAREAYYGGLYGMDYWGQGSSVTVSS
VL: DIVMSQSPSSLTVSVGEKVTMSCKSSQSLLYSSNQKIYLAWFQQKPGQSPKLLIYWASTRESGVPDRFTGSGSGTDFTLTISSVKAEDLAVYYCQQYYNSPLTFGAGTKLELK
notes: Mouse variable domains in human IgG4Pro (Ser228Pro) backbone; also called 718C2 in human IgG4Pro backbone
B4: Antibody E (antibody, human IgG4 S228P, kappa, V domains shown)
VH: EVQLVESGGGLVQPGGSLRLSCAASGFTFSDYYMSWVRQAPGKGLEWVAYISSGGGSSYYPDLVKGRFTISRDNAKQSLYLQMQSLRAEDTAVYYCARLPHYFAMDYWGQGTLVTVSS
VL: DIQMTQSPSSLSASVGDRVTITCQASQSISSDYLHWYQQKPGKAPKLLIYRTSNLESGVPSRFSGSGSGTDFTFTISSLQPEDIATYYCQQGTSLPRAFGQGTKLEIKR
notes: Humanized 723C2, human IgG4Pro/kappa; also called 723C2-IgG4Pro-461-40 with IgK-462-08
B5: Antibody B (antibody, human IgG4 S228P, kappa, V domains shown)
VH: B4 VH with Q77N
VL: B4 VL with S57T
notes: Humanized 723C2, human IgG4Pro/kappa; also called 723C2-IgG4Pro-461-41 with IgK-462-07
B6: Antibody D (antibody, human IgG4 S228P, kappa, V domains shown)
VH: B4 VH with Q84N
VL: B4 VL
notes: Humanized 723C2, human IgG4Pro/kappa; also called 723C2-IgG4Pro-461-44 with IgK-462-08
B7: Antibody A (antibody, human IgG4 S228P, kappa, V domains shown)
VH: B4 VH with A49S, S58K, Q77N, Q84S
VL: B4 VL with Q24S, E56A
notes: Humanized 723C2, human IgG4Pro/kappa
B8: 723C2 (mouse IgG1 backbone) (antibody, V domains shown)
VH: EVQLVESGGGLVQPGGSLKLSCAASGFTFSDYYMSWVRQTPEKRLEWVAYISSGGGSSYYPDSVKGRFTISRDNTKNTLYLQMSSLKSEDTAVYYCARLPHYFAMDCWGQGTSVTVSS
VL: EIVLTQSPTTMAASPGEKITITCSASSSISSDYLHWYQQKPGFSPELLIYRTSNLASGVPARFSGSGSGTSYSLTIGSMEAEDVATYYCQQGTSLPRAFGGGTKLEIK
B9: 703D10 (mouse IgG1 backbone) (antibody, V domains shown)
VH: B1 VH
VL: B1 VL
B10: 313C12 (mouse IgG1 backbone) (antibody, V domains shown)
VH: EVQLVESGGGLVKPGGSLKLSCAASGFTFSDYGMHWVRQTPEKGLEWIAYINSDSNTIYYADTVKGRFTISRDNARKTLYLQMTSLRSEDTAMYYCSPLVAPDYWGQGTTLTVSS
VL: DIVMTQSQKFMSTTVGDRVSITCKASQNVGTAVAWYQQKPGQSPKLLIYSVSNRYTGVPDRFTGSGSGTDFTLTISNMQSEDLADYFCQQYSSYPFTFGAGTKLELK
B11: 814E10 (mouse IgG1 backbone) (antibody, V domains shown)
VH: QIQLQQSGPELVKPGASVKISCKASGYTFTSYYIQWVKQRPGQGLEWIGWIYPGDGTTNYNENFKGKTTLTADKSSSTVYMLLSSLTSEDSAVYFCARYGLVPFDYWGQGTTLTVSS
VL: B2 VL with F30I, Y50S, P59S, S60L, F71Y, I83V, Q89H, N93Q
B12: 820C3 (mouse IgG1 backbone) (antibody, V domains shown)
VH: B2 VH
VL: B2 VL
B13: 718C2 (mouse IgG1 backbone) (antibody, V domains shown)
VH: B3 VH
VL: B3 VL
B14: 306E6 (mouse IgG1 backbone) (antibody, V domains shown)
VH: EVQLQQSGPELVKPGSSVKISCKASGYTFTDYYVNWVKQSHGKSLEWFGDIHPNSGDTTYNQKFKDKATLTVDKSSSTAYMELRSLTSEDSAVYYCARRRYDYDGFAYWGQGTLVTVSA
VL: EIVMTQAAFSNPVTLGTSASISCRSSKSLLHRNGITYLYWYLQKPGQSPQLLIYEMSNLASGVPDRFSSSGSGTDFTLRISRVEAEDVGVYYCGQNLEFPLTFGAGTKLELK
B15: 708E4 (mouse IgG1 backbone) (antibody, V domains shown)
VH: QIQLQQSGPELVKPGASVKISCKASGYTFTDYYLNWVKQRPGHGLEWIGWIYPGSSDTKHNENFKGKATLTVDTYSSTAYMQLGSLTSEDSAVYFCTRYSNFFFDYWGQGTTLTVSS
VL: DIVMTQSQKFLSTSVGDRVRVTCKASQNVVTYVAWYQQKPGQSPKSLIYSASYRYSGVPDRFTGSGSGTYFTLTINNVQFEDLAEYFCQQYHSYPYTFGGGTKLEIK

What follows are binders tested against T1, recombinant human PD-1 (human, UniProt Q15116 25-167, limits assumed) (assay: SPR, ProteOn XPR36).
T1 construct: Soluble recombinant protein used in SPR; also called PDCD1; purified recombinant human PD-1
T1 sequence (Q15116 25-167 limits assumed): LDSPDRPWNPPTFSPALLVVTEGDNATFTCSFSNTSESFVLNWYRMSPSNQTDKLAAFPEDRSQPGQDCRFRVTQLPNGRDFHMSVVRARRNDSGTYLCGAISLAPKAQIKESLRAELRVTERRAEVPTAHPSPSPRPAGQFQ
Method: Kinetics and binding affinities were measured using the ProteOn™ XPR36 (Biorad, Hercules, CA) surface plasmon resonance optical biosensor using material generated from transient transfection following single column purification.

Binder | Kd [nM] | koff [s⁻¹] | kon [M⁻¹ s⁻¹]
B1 | 9.49 | 0.000329 | 34600
B2 | 2.71 | 0.000286 | 106000
B3 | 3.98 | 0.000113 | 28400

What follows are binders tested against T2, human PD-1 expressed on cells (human, UniProt Q15116 25-288) (assay: cell-based or functional assay).
T2 sequence (Q15116 25-288): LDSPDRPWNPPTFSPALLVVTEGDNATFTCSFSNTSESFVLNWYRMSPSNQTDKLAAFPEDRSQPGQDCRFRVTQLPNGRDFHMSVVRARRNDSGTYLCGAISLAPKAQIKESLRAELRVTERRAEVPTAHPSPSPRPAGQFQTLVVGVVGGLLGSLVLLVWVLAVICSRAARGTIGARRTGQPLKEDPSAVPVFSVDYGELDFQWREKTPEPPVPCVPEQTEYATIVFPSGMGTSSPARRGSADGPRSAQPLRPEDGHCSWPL

Binder | Emax Values (%), Average, inhibition of IL-17A [%] | IC50 Values (pM), Geomean, inhibition of IL-17A [pM]
B4 | 59.2 | 8.1
B5 | 63.4 | 25.3
B6 | 63.9 | 31.9
B7 | 69.8 | 41.1

Biological target: T2, human PD-1 expressed on cells
Assay: cell-based or functional assay
Remark: another data set of the same source

Binder | Emax Values (%), Average, inhibition of IFNγ [%] | IC50 Values (pM), Average, inhibition of IFNγ [pM]
B8 | 74 | 122
B9 | 65 | 3200
B10 | 79 | 459
B11 | 63 | 74.2
B12 | 82 | 205
B13 | 64.5 | 995
B14 | 19.5 | 22
B15 | 73.5 | 915

What follows are binders tested against T1, recombinant human PD-1 (assay: SPR, ProteOn XPR36, 1:1 binding model).
Method: Antibody PD1AB-6-4P (antibody in IgG4Pro backbone disclosed in WO2017/058859 to Celgene) was also tested.

Binder | Kd [nM] | koff [s⁻¹] | kon [M⁻¹ s⁻¹]
B4 | 2.77 | 0.000492 | 178000
B5 | 1.62 | 0.000421 | 259000
B6 | 2.58 | 0.000574 | 222000
B7 | 2.73 | 0.000434 | 159000

Biological target: T2, human PD-1 expressed on cells
Assay: cell-based or functional assay
Remark: another data set of the same source

Binder | Emax Values (%), inhibition of NFAT activity [%] | IC50 Values (nM), inhibition of NFAT activity [nM]
B8 | 43.7 | 0.14
B9 | 47.4 | 10.9
B1 | 41.9 | 0.39
B10 | 42.2 | 0.37
B11 | 40.7 | 0.25
B12 | 48.7 | 0.14
B2 | 40 | 0.14
B13 | 50.8 | 0.82
B3 | 44.4 | 0.38
B14 | 45.5 | 1.14
B15 | 48.7 | 0.17

Biological target: T2, human PD-1 expressed on cells
Assay: cell-based or functional assay
Remark: another data set of the same source

Binder | Emax Values (%), Average, inhibition of IFNγ [%] | IC50 Values (pM), Geomean, inhibition of IFNγ [pM]
B2 | 56.7 | 38.5
B4 | 47.8 | 8.1
B5 | 48.9 | 18.4
B6 | 50.1 | 18
B7 | 49 | 7.4

The binders below were run against T3, cynomologous PD-1 (cynomolgus monkey, UniProt B0LAJ3 25-170) (assay: SPR, ProteOn XPR36, 1:1 binding model).
T3 construct: Used in SPR; also called cynomolgus PD-1; recombinant cynomologus PD-1
T3 sequence (B0LAJ3 entry or part of it limits assumed): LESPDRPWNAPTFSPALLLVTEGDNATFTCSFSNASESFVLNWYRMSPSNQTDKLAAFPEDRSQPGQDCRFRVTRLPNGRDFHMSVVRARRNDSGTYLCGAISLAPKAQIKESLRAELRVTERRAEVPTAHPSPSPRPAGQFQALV
Method: C) Affinity and kinetic data for the anti-PD-1 antibodies binding to cynomologous PD-1 were measured on the ProteOn™ XPR36 surface plasmon resonance optical biosensor, and globally fit to a 1:1 binding model (Table 11).

Binder | Kd [nM] | koff [s⁻¹] | kon [M⁻¹ s⁻¹]
B4 | 38.2 | 0.00663 | 173000
B5 | 32.9 | 0.00558 | 169000
B6 | 45.2 | 0.00674 | 149000
B7 | 26.5 | 0.00473 | 178000
